# Starred links: 1 amine or outer side, 2 acyl side, 3 side chain; linkers in the order of their positions; H or OH if unused. Positions of bridges follow the written chain, without caps; N, C: chain ends. Primed or numbered codes have the meaning given here. *: point of attachment. NOTA = O=C(O)CN1CCN(CC(=O)O)CCN(CC(=O)*)CC1; TBMB = c1c(C[*:1])cc(C[*:3])cc1C[*:2]; PEG3′ = not defined here
# Target: His-Tagged human CD38 (recombinant) (human) (UniProt P28907)
# Assay: SPR; Biacore T200, CM5 chip, 25 °C; His-tagged CD38 captured by immobilised anti-His antibody (human about 860 RU, mouse 1360 RU); AJ206 as analyte, 300 × 10^-9 M down to 1.2 × 10^-9 M; PBS-P + 1% DMSO, pH 7.4; 50 µL/min; contact 120 s, dissociation 360 s
binder,measurement,value
{NOTA-PEG3′}-ACVPCADFPIWYC-NH2 (linker 2-5-13 via TBMB) [AJ206],Kd,19.1 nM
